Experimental data: patent publication US5451411A, “Methods and compositions for the oral delivery of therapeutic agents” (University of Washington, priority 1993, dated 1995)

How the values were obtained:
[1] = system: mouse anti-TGF-β1 monoclonal antibody, 1D11; assay: ELISA measured binding activity (immunoreactivity) of TGF-β1; settings: solution without alginate, up to 0.14% w/v additive
Procedure: The ability of released TGF-β1 from both untreated and acid treated beads (as described above) to be recognized (bound) by a monoclonal antibody was assayed by ELISA as follows. An enzyme linked immunosorbent assay (ELISA) was used to quantitate the amount of immunoreactive TGF-β1 released from the untreated (PBS) and acid treated (HCl) alginate beads. The ELISA was based on the ability of a mouse anti-TGF-β1 monoclonal antibody, 1D11 (Bristol-Myers Squibb, Seattle, WA), to bind to the TGF-β1 molecule. When the 1D11 antibody was coated on 96-well immunoassay plates it captured TGF-β1 from the applied sample and standard solutions. Captured TGF-β1 was then bound by biotinylated 1D11 antibody which in turn was bound by a horseradish peroxidase/avidin D conjugate (Vector Labs cat #A-2004). A color reaction occurred by adding a chromophore/substrate solution of 3,3',5,5'-tetramethylbenzidine in CPB containing hydrogen peroxide. The reaction was stopped with the addition of 1 N sulfuric acid and the A450 was determined by a plate reader. Concentrations of the unknown samples were quantified relative to a TGF-β1 standard curve run on the same plate.
The immunoreactivity of TGF-β1 in solution in the presence of anionic amino acids, polyanions and polycations was studied using the ELISA procedure described in Example 2. To 1 mg/mL solutions of TGF-β1 in 5 mM HCl was added from 0 to 0.14%(w/v) of glutamic acid, aspartic acid, poly-L-aspartic acid (PLAA, Mw=13 kDa), sodium carboxymethyl cellulose (Na CMC, high viscosity), or polyacrylic acid (PAA, 2, 90 or 750 kDa). The reactivity of the TGF-β1 was then determined by the ELISA procedure, as described in Example 2.
Next, the ability of the additives to […] was investigated. Alginate solutions were prepared in accordance with the procedure of Example 1, incorporating 50 μg of TGF-β1, 0-0.15% (w/v) of sodium alginate and 0.1-1.0 mg (up to 0.125% w/v) of PAA (750 kDa), PLAA (13 kDa), NaCMC high viscosity or glutamic acid. The immunoreactivity of TGF-β1 was determined by ELISA as described in Example 2.
Alginate beads were prepared according to the procedure of Example 1 incorporating 50 μg TGF-β1 and 0.1-1.0 mg of additives. […] In addition, Poly-L-Lysine (PLL;123 kDa) was incorporated as a potential polycationic competitor. The additives were incorporated at an alginate:additive w/w ratio of from 75:10 to 75:1 as indicated below in Table 3.
To further assess the effect of amount of PAA incorporation on immunoreactivity of released TGF-β1, alginate beads were prepared by incubating TGF-β1 and PAA (90 kDa) for either 5 or 60 minutes (see FIG. 7) in w/w ratios of 75:1, 75:6 and 75:10, followed by dilution, addition of alginate, and bead formation in 1% CaCl2. The beads were acid treated in 0.1 N HCl at 37° C. for 30 minutes and then incubated at 37° C. in PBS, pH 7.4.

[2] = system: gastrointestinal tract; settings: sequential chemotherapeutic protocols; cited from earlier work
[3] = system: cells of epithelial origin, including human and rodent derived intestinal cells; settings: cited from earlier work
[4] = format: physicochemical
Procedure: Beads prepared in accordance with the procedure of Example 1 and containing 50 μg of ^125 I-TGF-β1 in 3.75-7.5 mg (original weight of alginate) were transferred to 15.0 mL polypropylene tubes containing 13.0 mL of PBS or of 0.1 N HCl at 37° C. In some cases, 1% BSA was added to the release media. The polypropylene tubes were gently shaken using a orbital shaker (200 rotations/minutes). At selected times, 100 μL aliquots were taken and counted for radioactivity. Care was taken so that aliquots contained no beads or bead fragments. The cumulative ^125 I-TGF-β1 released from the beads was calculated after correcting for volume changes. After 24 hours, the beads in 0.1 N HCl were transferred to PBS.
Alginate beads containing TGF-β1 and 90 kDa PAA (75:10 w/w in alginate:PAA) were prepared following the procedure of Example 1, and were acid treated for 30 minutes at 37° C. in 0.1 N HCl, as described in Example 2. The beads were then placed in PBS, pH 7.4, and the immunoreactivity of released TGF-β1 was determined by ^125 I radiolabel and ELISA, as described in Example 2. In addition, a growth inhibitory assay (GIA) was used to determine the bioactivity of the TGF-β1. The GIA measures the ability of TGF-β1 to inhibit the growth of mink lung epithelial cells (ATCC #CCL64) (T. Ikedaet al., "Human Transforming Growth Factor Type β2: Production By a Prostatic Adenocarcinoma Cell Line, Purification and Initial Characterization," Biochemistry 26:2406-2410 (1987)). The activity of the growth factor was determined by the inhibitory response of the cells to different concentrations of TGF-β1. Cell viability was based on the enzymatic cleavage by metabolically active cells of a tetrazolium salt into an orange/red formazan product. Prior to the assay cells were trypsinized and plated in a 96-well flat bottomed plate (Costar) at a concentration of 1000 cells/well. After allowing the cells to attach, samples containing the TGF-β1 and a reference standard were diluted to concentrations ranging from 1000 to 1.95 pg/ml and added to the wells. The cells were incubated for four days after which time a 100 μL solution containing 25 μg of sodium 3"-[1-(phenylamino)-carbonyl]-3,4-tetrazolium-bis(4-methoxy-6-nitro) benzene sulfonic acid hydrate (Diagnostic Chemicals, Ltd.) and 5 mM phenazine methosulfate (Aldrich) in media was added to each well. The cells were then incubated for 7 hours and the plates read on a microplate reader at an absorbance of 450 nm with a 630 nm reference filter. The specific activity of a sample was calculated relative to the reference material.

[5] = system: mouse antiamphiregulin monoclonal antibody, 6R1C1; assay: ELISA of immunoreactive Amphiregulin released from alginate beads; format: binding; settings: PBS
Procedure: The procedure of Example 10 was repeated substituting 25 μg of Amphiregulin for the Oncostatin-M of Example 11 and using a mouse antiamphiregulin monoclonal antibody, 6R1C1 (Bristol-Myers Squibb, Seattle, WA) as the capture antibody, followed by a goat anti-mouse horseradish peroxidase probe (Southern Biotech). The results are shown in FIG. 9 in which the symbols have the meanings of FIG. 8.

[6] = system: mouse anti-Oncostatin-M antibody, 11R2; assay: ELISA of immunoreactive Oncostatin-M released from alginate beads; format: binding; settings: PBS
Procedure: Following the procedure of Example 1, alginate beads were prepared from 800 μl of an aqueous solution containing 25 μg of Oncostatin-M (site source) and 3750 μg of sodium alginate (Sigma, Low Viscosity). To a portion of the solution was added 300 μg of PAA (Jannsen, 90 kDa) prior to bead formation. Samples of the beads, both with and without added PAA, were subject to acid treatment by incubating the beads in 0.1 N HCl at 37° C. for 30 minutes, as described in Example 2. The beads were then placed in PBS, and the percentage amount of immunoreactive Oncostatin-M was determined by ELISA assay following the procedure of Example 2 using a mouse anti-Oncostatin-M antibody, 11R2 (Bristol-Myers Squibb, Seattle, WA) as the capture antibody and biotinylated 1R10 mouse anti-Oncostatin-M antibody (Bristol-Myers Squibb, Seattle, WA) as the probe, followed by horseradish peroxidase/avidin D. The results are shown in FIG. 8, in which (.quadrature.) represents acid treated beads containing PAA, represents bead containing PAA which were not acid treated, represents beads without PAA which were acid treated, and represents beads without PAA which were not acid treated.

Q: With `N[C@@H](CC(=O)O)C(=O)O` [aspartic acid, L-aspartic acid, reference compound] as the molecule, how does the “Interference of additive with ELISA measured binding activity of TGF-β1” value [1] read?
A: The value was “interfered to a lesser extent”.

Q: Which Gastrointestinal toxic alterations [2] does the source give for `Nc1ccn([C@@H]2O[C@H](CO)[C@@H](O)[C@@H]2O)c(=O)n1` [cytosine arabinoside] here?
A: Its Gastrointestinal toxic alterations is “surface and glandular epithelial atypia, immaturity and necrosis”.

Q: For `O=c1[nH]c(=O)n([C@H]2C[C@H](O)[C@@H](CO)O2)cc1F` [floxuridine], which Gastrointestinal toxic alterations [2] is on record?
A: Its Gastrointestinal toxic alterations is “surface and glandular epithelial atypia, immaturity and necrosis”.

Q: Which “Interference of additive with ELISA measured binding activity of TGF-β1” value [1] does the source give for `N[C@@H](CCC(=O)O)C(=O)O` [glutamic acid, L-glutamic acid, reference compound] here?
A: The value was “interfered to a lesser extent”.

Q: With `CO[C@@]12[C@H](COC(N)=O)C3=C(C(=O)C(C)=C(N)C3=O)N1C[C@@H]1N[C@@H]12` [mitomycinC] as the molecule, how does the Gastrointestinal toxic alterations [2] read?
A: Its Gastrointestinal toxic alterations is “surface and glandular epithelial atypia, immaturity and necrosis”.

Q: Which Growth inhibition [3] does the source give for TGF-β here?
A: The Growth inhibition was “inhibit the growth of many cells of epithelial origin”.

Q: Which “125I-TGF-β1 released in 0.1 N HCl” value ([4]; 0.1 N HCl, 24 hours, 37° C.) does the source give for “^125 I-TGF-β1: TGF-β1 radioiodinated by a modified chloramine-T method” here?
A: The value was “essentially no”.

Q: And the “Further 125I-TGF-β1 release” value ([4]; PBS, even after 72 hours)?
A: Its value is “no further ^125 I-TGF-β1 was released”.

Q: What about the “Lag period before release” value ([4]; PBS, pH 7.4, 37° C.) of the same molecule?
A: Its value is 4 h.

Q: What about the “Cumulative 125I-TGF-β1 released (plateau)” value ([4]; PBS, pH 7.4, 37° C., after 20 hours, no acid treatment, no PAA) of the same molecule?
A: The value was 81%.

Q: What about the “125I-TGF-β1 released after transfer from 0.1 N HCl to PBS” value ([4]; transferred to PBS after 24 hours in 0.1 N HCl, in 2.5 hours) of the same molecule?
A: Its value is 100%.

B1: Amphiregulin: 25 μg of Amphiregulin encapsulated in alginate beads with or without PAA (protein, UniProt P15514 101-187, looked up)
Amphiregulin: SVRVEQVVKPPQNKTESENTSDKPKRKKKGGKNGKNRRNRKKKNPCNAEFQNFCIHGECKYIEHLEAVTCKCQQEYFGERCGEKSMK
modifications: encapsulated in alginate beads
notes: 25 μg of Amphiregulin encapsulated in alginate beads with or without PAA
Q: With B1 as the molecule, how does the “Immunoreactive Amphiregulin released, acid treated beads containing PAA” value [5] read?
A: The value was 67%.

Q: What about the “Immunoreactive Amphiregulin released, acid treated beads without PAA” value [5] of the same molecule?
A: Its value is 31%.

Q: And the “Immunoreactive Amphiregulin released, non acid treated beads containing PAA” value [5]?
A: The value was 52%.

Q: What about the “Immunoreactive Amphiregulin released, non acid treated beads without PAA” value [5] of the same molecule?
A: Its value is 22%.

B2: Oncostatin-M: 25 μg of Oncostatin-M encapsulated in alginate beads with or without PAA (protein, UniProt P13725 26-221, looked up)
Oncostatin-M: AAIGSCSKEYRVLLGQLQKQTDLMQDTSRLLDPYIRIQGLDVPKLREHCRERPGAFPSEETLRGLGRRGFLQTLNATLGCVLHRLADLEQRLPKAQDLERSGLNIEDLEKLQMARPNILGLRNNIYCMAQLLDNSDTAEPTKAGRGASQPPTPTPASDAFQRKLEGCRFLHGYHRFMHSVGRVFSKWGESPNRSRR
modifications: alginate bead encapsulation
notes: 25 μg of Oncostatin-M encapsulated in alginate beads with or without PAA
Q: For B2, which “Immunoreactive Oncostatin-M released, acid treated beads containing PAA” value ([6]; PAA 90 kDa) is on record?
A: Its value is 85%.

Q: What about the “Immunoreactive Oncostatin-M released, non acid treated beads containing PAA” value ([6]; PAA 90 kDa) of the same molecule?
A: Its value is 38%.

Q: What about the “Immunoreactive Oncostatin-M released, "non acid treated beads with PAA" (second value)” value [6] of the same molecule?
A: The value was 20%.

Q: And the “Immunoreactive Oncostatin-M released, acid treated beads without PAA” value [6]?
A: The value was 18%.
